Data taken from paper PMC3615900.

What was measured:
Conditions in all cases: reference: wild type; sites S248
[1] = target: 14-3-3β (UniProt Q9CQV8); experiment: co-IP with αFlag, blot α14-3-3β
[2] = target: 14-3-3β (UniProt P31946); experiment: Flag-Rubicon complex purification, immunoblot
[3] = target: V5-14-3-3β (UniProt P31946); experiment: co-IP with αV5, blot αFlag

Measured: binding against the reference

Rubicon (from UniProt Q92622) S248A
lost: all assays above
